One may read the Kd as the free concentration of one partner at which half of the binding sites on the other are occupied at equilibrium, for simple one-to-one binding. By EC50 is commonly meant the midpoint of the concentration-response curve.

The source of these data is US20040185507A1.

The target in assay [1] is αvβ3 integrin on human cells (human) (UniProt P06756). Nature of the assay: 125-I antibody saturation binding on A375S2 cells (n = 3).
Assay [2] has the same target. The experiment in a line: 125-I antibody saturation binding on M21 cells (n = 3).
Assay [3] has the same target. The experiment in a line: 125-I antibody saturation binding on M21 cells (n = 7).
Assay [4] has the same target. Nature of the assay: cell-based or functional assay.
Assay [5] deals with human αVβ3 integrin, purified (human) (UniProt P06756). The experiment in a line: ELISA saturation binding on alphaVbeta3 coated plate, non-linear regression (n = 6).
Chain of human αVβ3 integrin, purified (human) (P06756 31-1048, form in doubt, chain 1 of 2): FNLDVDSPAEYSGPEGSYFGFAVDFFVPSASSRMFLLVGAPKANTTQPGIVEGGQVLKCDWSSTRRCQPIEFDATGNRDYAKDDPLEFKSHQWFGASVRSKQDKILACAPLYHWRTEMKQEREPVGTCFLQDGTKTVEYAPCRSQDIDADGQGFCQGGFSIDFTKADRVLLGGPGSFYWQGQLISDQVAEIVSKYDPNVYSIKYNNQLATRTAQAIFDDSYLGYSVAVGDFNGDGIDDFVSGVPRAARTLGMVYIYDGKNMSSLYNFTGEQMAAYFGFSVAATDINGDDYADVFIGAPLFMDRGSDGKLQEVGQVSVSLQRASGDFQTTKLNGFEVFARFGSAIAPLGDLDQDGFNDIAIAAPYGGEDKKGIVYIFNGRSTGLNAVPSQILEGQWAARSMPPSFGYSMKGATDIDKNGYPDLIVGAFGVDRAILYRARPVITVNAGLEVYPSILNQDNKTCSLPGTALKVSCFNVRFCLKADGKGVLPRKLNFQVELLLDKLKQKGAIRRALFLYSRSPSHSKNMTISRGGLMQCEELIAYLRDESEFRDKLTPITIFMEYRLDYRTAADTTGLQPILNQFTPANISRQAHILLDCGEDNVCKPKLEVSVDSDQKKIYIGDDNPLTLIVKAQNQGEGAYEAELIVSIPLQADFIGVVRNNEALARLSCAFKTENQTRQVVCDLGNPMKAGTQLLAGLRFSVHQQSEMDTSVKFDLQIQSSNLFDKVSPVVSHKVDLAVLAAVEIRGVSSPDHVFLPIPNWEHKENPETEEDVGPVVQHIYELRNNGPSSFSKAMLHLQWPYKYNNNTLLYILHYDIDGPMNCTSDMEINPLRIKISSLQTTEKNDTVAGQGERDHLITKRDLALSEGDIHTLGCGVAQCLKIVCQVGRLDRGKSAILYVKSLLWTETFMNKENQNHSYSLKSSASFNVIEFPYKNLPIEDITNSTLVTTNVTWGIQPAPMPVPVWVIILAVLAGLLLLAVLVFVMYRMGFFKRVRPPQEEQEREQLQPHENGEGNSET
Chain of human αVβ3 integrin, purified (human) (P05106 27-788, form in doubt, chain 2 of 2, further chain): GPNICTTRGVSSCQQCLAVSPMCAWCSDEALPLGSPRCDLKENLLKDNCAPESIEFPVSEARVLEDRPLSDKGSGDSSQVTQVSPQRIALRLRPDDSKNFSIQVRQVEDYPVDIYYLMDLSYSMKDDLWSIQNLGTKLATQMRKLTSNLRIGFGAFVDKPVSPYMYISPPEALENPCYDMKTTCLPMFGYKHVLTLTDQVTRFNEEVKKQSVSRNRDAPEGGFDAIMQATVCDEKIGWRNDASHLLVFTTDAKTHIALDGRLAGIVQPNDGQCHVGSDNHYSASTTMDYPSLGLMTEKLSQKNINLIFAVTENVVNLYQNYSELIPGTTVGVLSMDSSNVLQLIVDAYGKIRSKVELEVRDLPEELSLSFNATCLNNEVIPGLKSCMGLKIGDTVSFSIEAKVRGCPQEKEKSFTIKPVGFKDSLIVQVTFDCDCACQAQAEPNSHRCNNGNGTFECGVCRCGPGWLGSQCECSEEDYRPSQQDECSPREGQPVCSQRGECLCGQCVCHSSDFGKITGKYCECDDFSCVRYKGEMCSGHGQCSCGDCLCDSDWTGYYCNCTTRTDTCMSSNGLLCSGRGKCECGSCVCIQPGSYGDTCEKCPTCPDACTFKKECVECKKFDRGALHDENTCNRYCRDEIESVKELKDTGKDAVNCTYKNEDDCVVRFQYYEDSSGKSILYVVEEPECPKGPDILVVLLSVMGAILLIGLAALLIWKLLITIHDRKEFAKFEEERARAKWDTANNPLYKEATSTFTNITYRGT
Assay [6] addresses αvβ3 integrin on human cells (human) (UniProt P06756). The experiment in a line: 125-I antibody saturation binding on A375S2 cells (n = 6).
The target of assay [7] is human αVβ3 integrin, purified (human) (UniProt P06756). Nature of the assay: ELISA on αVβ3 coated plates. (ELISA stands for enzyme-linked immunosorbent assay.)

Chain of αvβ3 integrin on human cells (human) (P06756 31-1048, chain 1 of 2): as the sequence (P06756 31-1048, form in doubt, chain 1 of 2) above
Chain of αvβ3 integrin on human cells (human) (P05106 27-788, chain 2 of 2, further chain): as the sequence (P05106 27-788, form in doubt, chain 2 of 2, further chain) above

B1: ReoPro (c7E3 Fab) (Fab, INN chains, looked up, V domains shown)
VH: EVQLQQSGTVLARPGASVKMSCEASGYTFTNYWMHWVKQRPGQGLEWIGAIYPGNSDTSYIQKFKGKAKLTAVTSTTSVYMELSSLTNEDSAVYYCTLYDGYYVFAYWGQGTLVTVSA
VL: EIVLTQSPVTLSVTPGDSVSLSCRASRDISNNLHWFQQTSHESPRLLIKYASQSMSGIPSRFSGSGSGTDFTLSINSVETEDFGMYFCQQTNSWPYTFGGGTKLEIK
modifications: Fab 125I label
The molecule B1 showed a Kd in assay [1] of 22 nM. In addition, in assay [2], the Kd was determined as 10 nM. This molecule also registered a Receptors per cell (receptors/cell) in assay [3] of 660000. Besides, in assay [4], the A375S.2 cell adhesion to fibrin, % of no-antibody control (10 µg/ml) is 12.9%; the A375S.2 cell adhesion to fibrinogen, % of no-antibody control (10 µg/ml) stood at 6.5%; the A375S.2 cell adhesion to fibronectin, % of no-antibody control (10 µg/ml) worked out at 104%; the A375S.2 cell adhesion to gelatin, % of no-antibody control (10 µg/ml) is 6%. In assay [4], the A375S.2 cell adhesion to type I collagen, % of no-antibody control (10 µg/ml) came out at 93.1%; the A375S.2 cell adhesion to vitronectin, % of no-antibody control (10 µg/ml) was 38.1%; the HUVEC adhesion to fibrin, % of no-antibody control (10 µg/ml) came out at 35.8%; the HUVEC adhesion to fibrinogen, % of no-antibody control (10 µg/ml) is 8.7%. Besides, in assay [4], the HUVEC adhesion to fibronectin, % of no-antibody control (10 µg/ml) worked out at 96.3%; the HUVEC adhesion to gelatin, % of no-antibody control (10 µg/ml) is 2.5%; the HUVEC adhesion to type I collagen, % of no-antibody control (10 µg/ml) worked out at 99.6%; the HUVEC adhesion to vitronectin, % of no-antibody control (10 µg/ml) was found to be 54.9%. This molecule also registered a Kd in assay [5] of 0.25 nM. The molecule further registered a Receptors per cell (receptors/cell) in assay [6] of 370000.

B2: c7E3 IgG (antibody, INN chains, looked up, V domains shown)
VH: EVQLQQSGTVLARPGASVKMSCEASGYTFTNYWMHWVKQRPGQGLEWIGAIYPGNSDTSYIQKFKGKAKLTAVTSTTSVYMELSSLTNEDSAVYYCTLYDGYYVFAYWGQGTLVTVSA
VL: EIVLTQSPVTLSVTPGDSVSLSCRASRDISNNLHWFQQTSHESPRLLIKYASQSMSGIPSRFSGSGSGTDFTLSINSVETEDFGMYFCQQTNSWPYTFGGGTKLEIK
modifications: IgG
For the molecule B2, the EC50 in assay [7] came to 0.07 µg/mL.
